Results taken from article PMC6411926, “Engagement of DNA and H3K27me3 by the CBX8 chromodomain drives chromatin association” (Nucleic Acids Research, 2018).
Ends that are not written are not given here. trimethyl = trimethyl-lysine

Legend:
[1] = molecular target: histone H3K27me3 peptide (Homo sapiens) (UniProt P68431); settings: cited from earlier work
CBX8 chromodomain (CD) = molecular target: T1, CBX8 chromodomain (CD) (UniProt Q9HC52 8-61); assay: NMR titration (1H-15N HSQC); authors' estimate (likely); saturation at ~1:1, curved CSPs; EMSA: 25 mM phosphate pH 6.8, 25 mM NaCl, 1 mM EDTA, 1 mM DTT, 15 min on ice, 6% gel in 0.4x TBE; NMR: 40 mM phosphate pH 6.8, 100 mM NaCl, 25 C; settings: protein: recombinant; tags: GST removed by TEV; 15N-labelled for NMR; blunt
T1 sequence: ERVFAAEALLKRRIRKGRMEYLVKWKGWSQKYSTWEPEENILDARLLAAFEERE

[2] = molecular target: T2, CBX8 chromodomain (residues 8-61) (UniProt Q9HC52 8-61); assay: NMR titration; 1H-15N HSQC; histone peptide added to 15N-CD pre-bound to an 11 bp DNA (CD:DNA 1:1); settings: both partners purified
T2 construct: CBX8 chromodomain, residues 8-61; Uniformly 15N-labelled for the NMR titrations; The methods name two chromodomain constructs (Addgene 62514 and GST-CBX8 8-61 in pGSTag); the purification that is described is that of the GST fusion cleaved with TEV; also called CD; CBX8 CD; source: E. coli BL21 (DE3), purified (glutathione agarose, TEV cleavage, cation exchange, Superdex 75)
T2 sequence (looked up): T1 sequence

[3] = molecular target: T2, CBX8 chromodomain (residues 8-61); assay: NMR titration; 1H-15N HSQC of 0.05-0.10 mM 15N-CBX8 CD with increasing molar ratios of unlabelled histone peptide; 25 °C; 100 mM NaCl, 40 mM phosphate pH 6.8; CSPs fit to a single-site model with ligand depletion, global Kd as the average over perturbed resonances; settings: both partners purified

In the case of CBX8 chromodomain (from UniProt Q9HC52), the Kd [1] is listed as > 500 µM.

B1: 11 bp DNA (dsDNA)
DNA 1: GCGTTTAAGCG
DNA 2: CGCTTAAACGC
In the case of B1, the Kd (CBX8 chromodomain (CD)) is reported as < 10 µM.

In the case of KAARK(trimethyl)SAPATGG [H3K27me3 (23-34) histone peptide], the Kd [2] is reported as 200 µM and the Kd [3] is reported as 700 µM.
